We go through 1 molecule from paper PMC4237735, “Codon optimization and factorial screening for enhanced soluble expression of human ciliary neurotrophic factor in Escherichia coli” (BMC Biotechnology, 2014).

A word on the EC50: it is the concentration giving half of the maximal effect. Read a high EC50 as a less potent agent.

The experiment deals with T1, human ciliary neurotrophic factor receptor alpha (hCNTFRα) (human, UniProt P26992 23-342).
T1 construct: human ciliary neurotrophic factor receptor alpha (hCNTFRα), bought protein; also called hCNTF receptor; source: bought: Sino Biologicals Inc
T1 sequence (looked up): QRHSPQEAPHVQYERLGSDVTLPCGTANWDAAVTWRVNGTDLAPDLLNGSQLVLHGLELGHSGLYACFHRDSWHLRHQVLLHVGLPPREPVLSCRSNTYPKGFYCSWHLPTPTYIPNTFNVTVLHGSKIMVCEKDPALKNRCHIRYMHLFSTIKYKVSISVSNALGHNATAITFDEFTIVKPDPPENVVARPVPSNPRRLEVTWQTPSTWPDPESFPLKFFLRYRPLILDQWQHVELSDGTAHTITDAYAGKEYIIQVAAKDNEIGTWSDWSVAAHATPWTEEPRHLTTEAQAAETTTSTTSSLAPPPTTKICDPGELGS
Nature of the experiment: ELISA; 1 μg hCNTFRα in PBS immobilised on Nunc MaxiSorp 96-well plate; blocked with 2% BSA in TBS-T; biotinylated CNTF 0.2 – 3.0 μg added, room temperature 2 h; detected with HRP-conjugated streptavidin and TMB, OD 450 nm. To be noted: both partners purified. On the technique in general: ELISA stands for enzyme-linked immunosorbent assay.

B1: recombinant 6-His-hCNTF (human ciliary neurotrophic factor), biotinylated (ligand, UniProt P26441 1-200, looked up)
chain: MAFTEHSPLTPHRRDLCSRSIWLARKIRSDLTALTESYVKHQGLNKNINLDSADGMPVASTDQWSELTEAERLQENLQAYRTFHVLLARLLEDQQVHFTPTEGDFHQAIHTLLLQVAAFAYQIEELMILLEYKIPRNEADGMPINVGDGGLFEKKLWGLKVLQELSQWTVRSIHDLRFISSHQTGIPARGSHYIANNKKM
modifications: biotin (reacted with a 20-fold molar excess of NHS-PEG4-biotin; sites not stated)
notes: Rhinovirus 3C protease cleavage site between the tag and the insert; No cleavage of the 6-His tag is described; also called biotinylated hCNTF; biotinylated CNTF; source: E. coli Rosetta 2(DE3)pLysS, TBONEX 25°C, purified (Ni-IDA, SEC)
In turn, B1 registered an EC50 of 36 nM.
